Assay results taken from IntAct's records for PubMed 19151722.

B1: Protein transport protein TIP20 (Saccharomyces cerevisiae), P33891 (parent)
chain: MNGIDDLLNINDRIKQVQNERNELASKLQNLKQSLASNDTEVALSEVIAQDIIEVGASVEGLEQLRAKYGDLQILNKLEKVAVQQTQMQAGVDKLDSFERQLDELAEQPPDQFTLDDVKALHSKLTSVFATVPQINNIDSQYAAYNKLKSKVTGKYNDVIIQRLATNWSNTFDQKLLEAQWDTQKFASTSVGLVKCLRENSTKLYQLSLLYLPLEEETQNGDSERPLSRSNNNQEPVLWNFKSLANNFNVRFTYHFHATSSSSKIETYFQFLNDYLAENLYKCINIFHDDCNGLTKPVIHEQFINYVLQPIRDKVRSTLFQNDLKTLIVLISQILATDKNLLNSFHYHGLGLVSLISDEVWEKWINYEVEMANRQFINITKNPEDFPKSSQNFVKLINKIYDYLEPFYDLDFDLLVRYKLMTCSLIFMNLTSSYLDYILTVDSLNETRTKEQELYQTMAKLQHVNFVYRKIKSLSSNFIFIQLTDIVNSTESKKYNSLFQNVENDYEKAMSTDMQNSIVHRIQKLLKETLRNYFKISTWSTLEMSVDENIGPSSVPSAELVNSINVLRRLINKLDSMDIPLAISLKVKNELLNVIVNYFTESILKLNKFNQNGLNQFLHDFKSLSSILSLPSHATNYKCMSLHELVKILKLKYDPNNQQFLNPEYIKTGNFTSLKEAYSIKYLKDTKIQDALYRIIYGNIL
partner: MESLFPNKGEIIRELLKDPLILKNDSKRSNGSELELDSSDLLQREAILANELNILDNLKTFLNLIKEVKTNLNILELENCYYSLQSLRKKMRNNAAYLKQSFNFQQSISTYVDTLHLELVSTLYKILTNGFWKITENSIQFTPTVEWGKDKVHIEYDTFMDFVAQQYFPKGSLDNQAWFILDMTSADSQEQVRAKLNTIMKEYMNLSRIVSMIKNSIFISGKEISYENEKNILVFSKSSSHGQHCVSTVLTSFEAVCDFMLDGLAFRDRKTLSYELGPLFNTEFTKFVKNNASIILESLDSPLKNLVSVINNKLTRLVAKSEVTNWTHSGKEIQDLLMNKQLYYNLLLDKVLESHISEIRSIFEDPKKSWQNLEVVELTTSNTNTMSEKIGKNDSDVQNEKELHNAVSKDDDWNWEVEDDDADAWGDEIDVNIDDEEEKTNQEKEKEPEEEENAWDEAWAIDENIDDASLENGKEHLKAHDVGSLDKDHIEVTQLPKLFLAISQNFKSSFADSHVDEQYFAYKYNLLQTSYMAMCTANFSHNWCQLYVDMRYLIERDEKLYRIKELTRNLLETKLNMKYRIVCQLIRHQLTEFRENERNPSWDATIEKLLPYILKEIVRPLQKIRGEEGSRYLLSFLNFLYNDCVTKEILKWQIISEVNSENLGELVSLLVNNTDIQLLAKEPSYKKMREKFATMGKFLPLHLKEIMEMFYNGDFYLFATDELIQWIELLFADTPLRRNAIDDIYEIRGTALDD
B2: Protein transport protein DSL1 (Saccharomyces cerevisiae), P53847 (parent)
chain: B1 partner
partner: B1 chain

Variants of: B1
Conditions: with dsl1_yeast DSL1, P53847

Row | effect of a mutation on the interaction | Variant
1 | disrupting interaction | V17E
2 | disrupting interaction | I10D;L28E

Variants of: B2
Conditions: with tip20_yeast TIP20, P33891

Row | effect of a mutation on the interaction | Variant
3 | disrupting interaction | L48E
4 | disrupting interaction | L55E
5 | disrupting interaction | L58D
